From patent US20200231659A1 (published 2020)

T1: cystic fibrosis transmembrane conductance regulator (CFTR) inhibitory factor (Cif) (Pseudomonas aeruginosa)
T1 chain: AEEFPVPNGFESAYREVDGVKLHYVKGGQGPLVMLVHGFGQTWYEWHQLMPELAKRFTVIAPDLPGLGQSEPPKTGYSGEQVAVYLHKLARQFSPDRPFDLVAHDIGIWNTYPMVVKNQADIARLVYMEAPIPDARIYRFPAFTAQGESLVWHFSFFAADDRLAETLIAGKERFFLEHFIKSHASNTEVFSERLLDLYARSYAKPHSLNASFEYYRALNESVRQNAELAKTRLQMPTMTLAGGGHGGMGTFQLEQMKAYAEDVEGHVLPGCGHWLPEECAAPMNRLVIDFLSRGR


What was measured:
[1] = biological target: T1, cystic fibrosis transmembrane …; assay: sandwich ELISA
[2] = biological target: cystic fibrosis transmembrane conductance regulator (CFTR) inhibitory factor (Cif) (Pseudomonas aeruginosa); assay: cell-based or functional assay

Binder | IC50 [1] | further results
VHH CLONE 320 (VHH) VHH: DVQLQASGGGLVQPGGSLRLSCATSTSVFSITTLGWYRQAPGKQRELVASMKRGGDTNYADSVKGRFTISRDNARNTVFLQMNNLTTEDTAVYYCNAAILAYTGAVTNYWGQGTQVTVSS | 0.0061 µg/mL | % inhibition of Cif activity, [nab] tested 0.23 mg/mL [2]: 9%
VHH CLONE 116 (VHH) VHH: EVQLVESGGGLVQPGGSLRLSCTASGSILKIYTMDWYRQAPGKQRDLVATVSSRGDTDYTDSVKGRFTISRDDAKNTAYLQMSSLKPEDTAVYYCNFYIQSRTAPFNDYWGQGTQVTVSS | 0.0312 µg/mL | % inhibition of Cif activity, [nab] tested 0.275 mg/mL [2]: 11%
VHH CLONE 213 (VHH) VHH: EVQLVESVGGLVQPGGSLRLSCVASGNIGDIYTMGWYRQAPGKQRELVATVGDGGLTNFVDSVKGRFTISRDKSKGTVSLEMNSLKPEDTAVYYCNADVRIGPTGLRVYWGQGTQVTVSS | 0.011 µg/mL | % inhibition of Cif activity, [nab] tested 0.55 mg/mL [2]: 0%
VHH CLONE 108 (VHH) VHH: EVQLVESGGGLVQPGGSLRLSCEATGNFDDRGIGWFRQAPGKEREGIACITTRGRTHYAESVEGRFTISTDIANNAVYLQMNSLKPEDTAVYYCAKAIRLTTDRTQCVAFPGVSWGRGTQVTVSS | 0.0098 µg/mL | % inhibition of Cif activity, [nab] tested 0.275 mg/mL [2]: 19%
VHH CLONE 220 (VHH) VHH: EVQLVESGGGLVQPGGSLRLSCVASGNIGNIYTMGWYRQAPGKQRELVAAVGAGELTNYVDSVKGRFTISRDKSKGTVSLEMNSLKPEDTAVYYCNADVSIGPTGLRVYWGQGTQVTVSS | 0.0211 µg/mL | % inhibition of Cif activity, [nab] tested 0.475 mg/mL [2]: 0%
VHH CLONE 302 (VHH) VHH: QVKLQESGGGLVQPGGSLRLSCVASGNIGDIYTMGWYRQAPGKQRELVATVGDGGLTNFVDSVKGRFTISRDKSKGTVSLEMNSLKPEDTAVYYCNADVRIGPTGLRVYWGQGTQVTVSS | 0.0172 µg/mL | % inhibition of Cif activity, [nab] tested 0.5 mg/mL [2]: 0%
VHH CLONE 103 (VHH) VHH: EVQLMESAGGLVRPGGSLRLSCVASGSIGDIYSMGWYRQAPGKQRELVATVGAGGLTDYGDSVLGRFTISRDKTKGTVSLEMNSLKPEDTAVYYCNADVSIGPTGLRVYWGQGTQVTVSS | 0.0168 µg/mL | % inhibition of Cif activity, [nab] tested 0.5 mg/mL [2]: 2%
VHH CLONE 205 (VHH) VHH: DVQLQASGGGLVQPGGSLRLSCAATGSTDRIAFMGWYRQAPGKLRELVAGITSDGRTNYADDVDVSGRFTISRDSAKNMVYLQMNSLKPEDTAVYYCNADITLAMGGLRVYWGQGTQVTVSS | 0.0207 µg/mL | % inhibition of Cif activity, [nab] tested 0.125 mg/mL [2]: 0%
